Data: US20200231654A1 (published 2020)

B1: active MMP-9-binding peptide M91004 (designed binder)
chain: GSGMKETAAAKFERQHMDSPDLGTDDDDKAMADIGSANSDPQFGLFSKYRTPNCRQRKGPSCQMAFQPVCGSDMSTYANECTLCMKIREGGHNIKIIRNGPCGASAAA
B2: active MMP-9-binding peptide M91012 (designed binder)
chain: GSGMKETAAAKFERQHMDSPDLGTDDDDKAMADIGSANSDPQFGLFSKYRTPNCRVRGGPSCQMSFNPVCGSDMSTYANECTLCMKIREGGHNIKIIRNGPCGASAAA
B3: active MMP-9-binding peptide M91002 (designed binder)
chain: GSGMKETAAAKFERQHMDSPDLGTDDDDKAMADIGSANSDPQFGLFSKYRTPNCRTGRGPACQMGFQPVCGSDMSTYANECTLCMKIREGGHNIKIIRNGPCGASAAA
B4: active MMP-9-binding peptide M91001 (designed binder)
chain: GSGMKETAAAKFERQHMDSPDLGTDDDDKAMADIGSANSDPQFGLFSKYRTPNCQRGIGPSCQMSYKPVCGSDMSTYANECTLCMKIREGGHNIKIIRNGPCGASAAA
B5: active MMP-9-binding peptide M91010 (designed binder)
chain: GSGMKETAAAKFERQHMDSPDLGTDDDDKAMADIGSANSDPQFGLFSKYRTPNCRKVGEPACQMSFNPVCGSDMSTYANECTLCMKIREGGHNIKIIRNGPCGASAAA
B6: active MMP-9-binding peptide M91014 (designed binder)
chain: GSGMKETAAAKFERQHMDSPDLGTDDDDKAMADIGSANSDPQFGLFSKYRTPNCVMYKYAQCSHKYKPVCGSDMSTYANECTLCMKIREGGHNIKIIRNGPCGASAAA
B7: active MMP-9-binding peptide M91011 (designed binder)
chain: GSGMKETAAAKFERQHMDSPDLGTDDDDKAMADIGSANSDPQFGLFSKYRTPNCMMYKYAQCSHKSQPVCGSDMSTYANECTLCMKIREGGHNIKIIRNGPCGASAAA
B8: active MMP-9-binding peptide M91005 (designed binder)
chain: GSGMKETAAAKFERQHMDSPDLGTDDDDKAMADIGSANSDPQFGLFSKYRTPNCRKRGGPSCQMSYNPVCGSDMSTYANECTLCMKIREGGHNIKIIRNGPCGASAAA

Legend:
[1] = biological target: Trypsin from Human Pancreas (human, UniProt P07477 24-247); assay: substrate peptide degradation inhibition
[2] = biological target: Thrombin from human plasma (human, UniProt P00734 328-622); assay: substrate peptide degradation inhibition
[3] = biological target: T1, Chymase human recombinant expressed in Pichia pastoris (human, UniProt P23946 22-247); assay: substrate peptide degradation inhibition
T1 chain: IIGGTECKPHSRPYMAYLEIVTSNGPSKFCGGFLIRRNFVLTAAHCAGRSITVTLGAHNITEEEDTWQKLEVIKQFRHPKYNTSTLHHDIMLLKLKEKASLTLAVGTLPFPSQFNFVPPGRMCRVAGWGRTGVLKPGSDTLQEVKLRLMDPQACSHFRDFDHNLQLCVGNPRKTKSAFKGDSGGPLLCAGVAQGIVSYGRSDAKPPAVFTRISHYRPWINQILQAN

[4] = biological target: Protein C from human plasma (human, UniProt P04070 43-461); assay: substrate peptide degradation inhibition
[5] = biological target: Tryptase from human lung (human, UniProt Q15661 31-275); assay: substrate peptide degradation inhibition
[6] = biological target: T2, Recombinant Human Matriptase/ST14 Catalytic Domain (human, UniProt Q9Y5Y6 596-855); assay: substrate peptide degradation inhibition
T2 chain: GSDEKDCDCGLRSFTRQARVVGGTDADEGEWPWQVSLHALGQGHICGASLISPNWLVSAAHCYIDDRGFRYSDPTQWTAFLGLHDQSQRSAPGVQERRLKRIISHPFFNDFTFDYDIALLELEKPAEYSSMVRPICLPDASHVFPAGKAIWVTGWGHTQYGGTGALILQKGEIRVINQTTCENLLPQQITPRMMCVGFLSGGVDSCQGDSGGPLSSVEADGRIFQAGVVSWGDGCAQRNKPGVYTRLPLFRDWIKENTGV

[7] = biological target: T3, Neutrophil elastase (human) (human, UniProt P08246 30-247); assay: substrate peptide degradation inhibition
T3 chain: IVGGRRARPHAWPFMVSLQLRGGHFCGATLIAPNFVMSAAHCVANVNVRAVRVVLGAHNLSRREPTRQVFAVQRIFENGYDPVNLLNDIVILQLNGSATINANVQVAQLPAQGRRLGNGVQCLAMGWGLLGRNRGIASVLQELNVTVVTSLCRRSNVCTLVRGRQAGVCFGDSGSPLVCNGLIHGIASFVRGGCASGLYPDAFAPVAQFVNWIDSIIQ

[8] = biological target: α-Chymotrypsin from human pancreas (human, UniProt P17538 19-263); assay: substrate peptide degradation inhibition
[9] = biological target: tissue plasminogen activator human (human, UniProt P00750 36-562); assay: substrate peptide degradation inhibition
[10] = biological target: T4, Plasmin from human plasma (human, UniProt P00747 97-810); assay: substrate peptide degradation inhibition
T4 chain: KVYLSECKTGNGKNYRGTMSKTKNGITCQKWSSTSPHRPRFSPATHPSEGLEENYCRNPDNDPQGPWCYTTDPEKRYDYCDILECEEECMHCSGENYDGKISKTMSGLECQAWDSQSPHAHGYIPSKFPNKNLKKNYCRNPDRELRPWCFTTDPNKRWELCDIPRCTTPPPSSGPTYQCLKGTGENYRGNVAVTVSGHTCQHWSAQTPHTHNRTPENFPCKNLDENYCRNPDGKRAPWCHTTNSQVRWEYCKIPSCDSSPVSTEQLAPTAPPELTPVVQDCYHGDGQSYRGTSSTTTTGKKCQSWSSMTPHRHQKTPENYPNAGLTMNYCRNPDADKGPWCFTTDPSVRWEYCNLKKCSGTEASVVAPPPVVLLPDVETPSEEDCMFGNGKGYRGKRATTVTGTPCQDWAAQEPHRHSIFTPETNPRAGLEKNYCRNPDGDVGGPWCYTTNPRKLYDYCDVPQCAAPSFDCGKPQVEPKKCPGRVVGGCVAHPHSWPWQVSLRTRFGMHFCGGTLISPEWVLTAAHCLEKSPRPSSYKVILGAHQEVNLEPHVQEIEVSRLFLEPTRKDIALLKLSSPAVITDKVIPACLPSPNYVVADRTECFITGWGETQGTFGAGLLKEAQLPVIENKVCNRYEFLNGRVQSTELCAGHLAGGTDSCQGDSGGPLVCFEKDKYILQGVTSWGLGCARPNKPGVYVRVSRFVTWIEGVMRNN

[11] = biological target: recombinant human plasma kallikrein/KLKB1 Protein (human, UniProt P03952 20-638); assay: substrate peptide degradation inhibition
[12] = biological target: urokinase from human urine (human, UniProt P00749 21-431); assay: substrate peptide degradation inhibition
[13] = biological target: active hMMP-9(cat)_His6 (UniProt P14780 107-449); assay: enzyme inhibition; substrate gelatin
[14] = biological target: T5, APMA-activated human MMP-1 enzyme active domain (human, UniProt P03956 100-269); assay: enzyme inhibition
T5 chain: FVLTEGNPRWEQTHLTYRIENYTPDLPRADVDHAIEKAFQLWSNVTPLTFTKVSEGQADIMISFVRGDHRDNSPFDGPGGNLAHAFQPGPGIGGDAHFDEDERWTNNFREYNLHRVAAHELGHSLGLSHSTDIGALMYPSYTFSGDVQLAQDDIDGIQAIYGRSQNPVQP

[15] = biological target: APMA-activated human MMP-8 enzyme active domain (human, UniProt P22894 101-262); assay: enzyme inhibition
[16] = biological target: active hMMP-9(cat)_M422I (UniProt P14780 107-449); assay: substrate peptide enzyme inhibition
Sequence of active hMMP-9(cat)_M422I (P14780 107-449 M422I): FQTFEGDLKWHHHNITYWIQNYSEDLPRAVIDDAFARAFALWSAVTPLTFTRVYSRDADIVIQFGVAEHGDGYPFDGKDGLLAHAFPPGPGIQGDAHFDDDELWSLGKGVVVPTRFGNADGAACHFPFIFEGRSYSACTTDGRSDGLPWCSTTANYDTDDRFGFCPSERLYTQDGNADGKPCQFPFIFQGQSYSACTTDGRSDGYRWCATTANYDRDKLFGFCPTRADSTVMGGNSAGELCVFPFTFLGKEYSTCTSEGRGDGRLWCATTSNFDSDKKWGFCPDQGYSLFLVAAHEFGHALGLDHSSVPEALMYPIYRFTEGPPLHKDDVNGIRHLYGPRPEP

Sequence of Protein C from human plasma (P04070 43-461): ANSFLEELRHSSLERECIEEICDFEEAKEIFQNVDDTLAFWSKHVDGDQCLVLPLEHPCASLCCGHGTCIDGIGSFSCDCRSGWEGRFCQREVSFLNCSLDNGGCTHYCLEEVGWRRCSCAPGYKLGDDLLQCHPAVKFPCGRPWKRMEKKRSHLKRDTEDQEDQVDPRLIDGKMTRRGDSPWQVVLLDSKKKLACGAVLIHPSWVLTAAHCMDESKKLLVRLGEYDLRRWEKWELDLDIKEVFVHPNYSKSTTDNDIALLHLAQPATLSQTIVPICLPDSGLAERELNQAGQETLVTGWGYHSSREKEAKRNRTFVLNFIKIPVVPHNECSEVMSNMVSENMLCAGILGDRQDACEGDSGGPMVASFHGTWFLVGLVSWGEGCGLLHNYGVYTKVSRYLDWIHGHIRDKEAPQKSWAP
Sequence of tissue plasminogen activator human (P00750 36-562): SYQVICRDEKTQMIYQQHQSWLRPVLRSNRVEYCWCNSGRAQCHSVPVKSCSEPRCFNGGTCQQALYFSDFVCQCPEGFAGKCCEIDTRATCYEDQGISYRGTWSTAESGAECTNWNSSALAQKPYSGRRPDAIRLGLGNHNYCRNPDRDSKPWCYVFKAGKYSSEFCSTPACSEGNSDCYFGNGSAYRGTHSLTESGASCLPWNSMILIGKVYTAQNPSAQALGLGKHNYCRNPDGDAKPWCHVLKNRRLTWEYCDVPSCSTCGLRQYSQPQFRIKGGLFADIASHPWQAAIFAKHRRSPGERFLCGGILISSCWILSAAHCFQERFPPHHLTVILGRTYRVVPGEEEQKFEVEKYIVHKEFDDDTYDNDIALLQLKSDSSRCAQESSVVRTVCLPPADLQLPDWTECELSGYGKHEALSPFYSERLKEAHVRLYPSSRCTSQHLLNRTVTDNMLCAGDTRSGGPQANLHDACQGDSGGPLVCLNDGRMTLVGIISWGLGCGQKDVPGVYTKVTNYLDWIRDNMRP
Sequence of α-Chymotrypsin from human pancreas (P17538 19-263): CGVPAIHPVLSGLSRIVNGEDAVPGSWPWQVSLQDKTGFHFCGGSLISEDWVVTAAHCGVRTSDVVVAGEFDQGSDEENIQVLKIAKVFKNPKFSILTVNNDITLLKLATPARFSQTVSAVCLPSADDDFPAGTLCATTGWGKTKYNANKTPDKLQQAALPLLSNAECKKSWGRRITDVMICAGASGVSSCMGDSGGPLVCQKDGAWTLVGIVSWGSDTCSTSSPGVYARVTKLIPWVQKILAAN
Sequence of Tryptase from human lung (Q15661 31-275): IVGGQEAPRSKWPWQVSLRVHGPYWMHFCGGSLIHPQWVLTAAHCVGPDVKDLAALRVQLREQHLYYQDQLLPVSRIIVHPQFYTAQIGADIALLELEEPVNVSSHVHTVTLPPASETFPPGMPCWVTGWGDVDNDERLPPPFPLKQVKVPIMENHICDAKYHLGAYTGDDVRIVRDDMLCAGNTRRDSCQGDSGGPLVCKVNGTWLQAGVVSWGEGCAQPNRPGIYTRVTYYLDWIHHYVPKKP
Sequence of active hMMP-9(cat)_His6 (P14780 107-449): as the sequence (P14780 107-449 M422I) above, with I316M counted along it
Sequence of recombinant human plasma kallikrein/KLKB1 Protein (P03952 20-638): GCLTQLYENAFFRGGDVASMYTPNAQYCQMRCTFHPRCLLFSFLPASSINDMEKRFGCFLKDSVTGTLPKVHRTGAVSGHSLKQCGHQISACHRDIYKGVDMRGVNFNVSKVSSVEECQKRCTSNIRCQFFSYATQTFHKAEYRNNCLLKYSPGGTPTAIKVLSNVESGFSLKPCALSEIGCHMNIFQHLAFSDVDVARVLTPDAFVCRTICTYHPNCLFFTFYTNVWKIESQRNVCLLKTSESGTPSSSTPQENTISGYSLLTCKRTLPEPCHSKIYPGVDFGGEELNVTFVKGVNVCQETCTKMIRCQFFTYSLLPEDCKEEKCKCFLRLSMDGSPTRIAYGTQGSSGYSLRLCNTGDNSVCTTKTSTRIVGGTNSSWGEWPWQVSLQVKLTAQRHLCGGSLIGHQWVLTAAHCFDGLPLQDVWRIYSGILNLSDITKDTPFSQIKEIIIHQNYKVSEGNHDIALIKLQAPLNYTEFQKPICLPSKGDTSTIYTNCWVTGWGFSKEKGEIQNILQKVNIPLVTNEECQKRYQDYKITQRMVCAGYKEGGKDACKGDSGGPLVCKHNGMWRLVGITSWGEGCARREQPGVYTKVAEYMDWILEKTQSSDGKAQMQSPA
Sequence of APMA-activated human MMP-8 enzyme active domain (P22894 101-262): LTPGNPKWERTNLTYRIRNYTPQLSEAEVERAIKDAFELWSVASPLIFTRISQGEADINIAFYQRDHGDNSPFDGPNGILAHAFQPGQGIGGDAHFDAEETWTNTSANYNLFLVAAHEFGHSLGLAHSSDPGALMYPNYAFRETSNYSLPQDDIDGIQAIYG

Row | Binder | IC50 [1] | IC50 [2] | IC50 [3] | IC50 [4] | IC50 [5] | IC50 [6] | IC50 [7] | IC50 [8] | IC50 [9] | IC50 [10] | IC50 [11] | IC50 [12] | IC50 [13] | IC50 [14] | IC50 [15] | IC50 [16]
1 | B1 | > 1 µM | > 1 µM | > 1 µM | > 1 µM | > 1 µM | > 1 µM | > 1 µM | > 1 µM | > 1 µM | > 1 µM | > 1 µM | > 1 µM | 0.0076 µM | > 1 µM | > 1 µM | –
2 | B2 | > 1 µM | > 1 µM | > 1 µM | > 1 µM | > 1 µM | > 1 µM | > 1 µM | > 1 µM | > 1 µM | > 1 µM | > 1 µM | > 1 µM | 0.0086 µM | > 1 µM | > 1 µM | –
3 | B3 | > 1 µM | > 1 µM | > 1 µM | > 1 µM | > 1 µM | > 1 µM | > 1 µM | > 1 µM | > 1 µM | > 1 µM | > 1 µM | > 1 µM | 0.0085 µM | > 1 µM | > 1 µM | –
4 | B4 | > 1 µM | > 1 µM | > 1 µM | > 1 µM | > 1 µM | > 1 µM | > 1 µM | > 1 µM | > 1 µM | > 1 µM | > 1 µM | > 1 µM | 0.0083 µM | > 1 µM | > 1 µM | –
5 | B5 | > 1 µM | > 1 µM | > 1 µM | > 1 µM | > 1 µM | > 1 µM | > 1 µM | > 1 µM | > 1 µM | > 1 µM | > 1 µM | > 1 µM | 0.0058 µM | > 1 µM | > 1 µM | –
6 | B6 | > 1 µM | > 1 µM | > 1 µM | > 1 µM | > 1 µM | > 1 µM | > 1 µM | > 1 µM | > 1 µM | > 1 µM | > 1 µM | > 1 µM | 0.003 µM | > 1 µM | > 1 µM | –
7 | B7 | > 1 µM | > 1 µM | > 1 µM | > 1 µM | > 1 µM | > 1 µM | > 1 µM | > 1 µM | > 1 µM | > 1 µM | > 1 µM | > 1 µM | – | > 1 µM | > 1 µM | 0.043 µM
8 | B8 | > 1 µM | > 1 µM | > 1 µM | > 1 µM | > 1 µM | > 1 µM | > 1 µM | > 1 µM | > 1 µM | > 1 µM | > 1 µM | > 1 µM | 0.0082 µM | > 1 µM | > 1 µM | 0.045 µM
